The term Km denotes the concentration of substrate that gives half-maximal velocity. The stoichiometry N is a count of units in the complex or per binding partner.

Drawing on article PMC12427885 (Foods, 2025), this text covers Ki, Km and stoichiometry N for three compounds.

Data set [1] has as its target T1, DAO-GH (Glutamicibacter halophytocola, UniProt Z9MBQ1XXX8).
T1 construct: gene from G. halophytocola isolate, codon-optimized, intracellular expression in Komagataella phaffii; partially purified (PEI, ammonium sulfate, HIC)
The data set is described as follows: DA-67/horseradish peroxidase coupled H2O2 assay, […] nm; Michaelis-Menten nonlinear regression. Format: biochemical. As to conditions: substrate inhibition by tyramine; second site; 25 mM potassium phosphate pH 6.8, 37 °C; partially purified enzyme.

The test system of data set [2] is NCCc1ccc(O)cc1. Briefly: purified protein. As to conditions: apparent, 25 mM potassium phosphate pH 6.8, 37 °C, 0.005-3 mM tyramine, partially purified enzyme.
In data set [3] the target is diamine oxidase from Glutamicibacter halophytocola (DAO-GH) (Glutamicibacter halophytocola). Briefly: SEC; HiLoad 16/600 Superdex 200 prep grade; 50 mM sodium phosphate, 150 mM NaCl, pH 7; 1 mL/min; HIC-purified (partially purified) DAO-GH; fractions analysed for DAO activity; calibrated with the high molecular weight gel filtration kit; native mass compared with the monomer's mass. A general note: Size exclusion chromatography separates by hydrodynamic size, large species first.

T1 sequence (Z9MBQ1XXX8 1-653): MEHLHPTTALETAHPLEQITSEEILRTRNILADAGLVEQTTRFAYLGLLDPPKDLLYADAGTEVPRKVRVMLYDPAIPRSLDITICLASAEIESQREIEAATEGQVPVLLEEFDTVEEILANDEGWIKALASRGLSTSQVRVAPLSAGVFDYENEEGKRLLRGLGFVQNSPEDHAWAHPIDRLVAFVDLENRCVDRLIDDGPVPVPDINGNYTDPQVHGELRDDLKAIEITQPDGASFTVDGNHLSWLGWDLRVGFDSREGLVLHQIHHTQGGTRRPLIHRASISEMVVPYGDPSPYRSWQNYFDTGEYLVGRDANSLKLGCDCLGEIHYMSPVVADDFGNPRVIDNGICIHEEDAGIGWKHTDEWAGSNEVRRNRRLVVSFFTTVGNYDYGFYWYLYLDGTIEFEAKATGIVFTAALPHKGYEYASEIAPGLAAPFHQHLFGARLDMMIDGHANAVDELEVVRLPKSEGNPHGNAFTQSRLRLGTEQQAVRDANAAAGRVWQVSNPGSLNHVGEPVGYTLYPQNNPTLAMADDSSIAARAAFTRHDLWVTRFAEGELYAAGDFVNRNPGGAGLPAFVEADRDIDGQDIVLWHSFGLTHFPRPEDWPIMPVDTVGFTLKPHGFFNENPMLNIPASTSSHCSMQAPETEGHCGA

In data set [1], `NCCc1ccc(O)cc1` [tyramine] gave a Ki of 10.4 ± 4.0 mM. Take DAO-GH (Glutamicibacter halophytocola): in data set [2], the Km is 9 ± 0.2 µM.

“diamine oxidase from Glutamicibacter halophytocola (DAO-GH) (enzyme)” had a stoichiometry N in data set [3] of 2.
